# According to patent publication US10508143 (ALETA BIOTHERAPEUTICS, dated 2019):
# T1: Human BCMA Protein, Fc Tag (R&D Systems, Cat#193-BC-050) (human, UniProt Q02223 1-54)
# T1 construct: Bought; also called Human BCMA-Fc; not shown: Fc tag of the bought protein
# T1 sequence (looked up): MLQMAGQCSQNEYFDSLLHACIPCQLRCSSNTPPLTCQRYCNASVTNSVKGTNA
# T2: CD20 on stable transfectant line 293-CD20 (UniProt P11836 1-297)
# T2 construct: whole, on cells; also called CD20 expressing 293 cells
# T2 sequence (looked up): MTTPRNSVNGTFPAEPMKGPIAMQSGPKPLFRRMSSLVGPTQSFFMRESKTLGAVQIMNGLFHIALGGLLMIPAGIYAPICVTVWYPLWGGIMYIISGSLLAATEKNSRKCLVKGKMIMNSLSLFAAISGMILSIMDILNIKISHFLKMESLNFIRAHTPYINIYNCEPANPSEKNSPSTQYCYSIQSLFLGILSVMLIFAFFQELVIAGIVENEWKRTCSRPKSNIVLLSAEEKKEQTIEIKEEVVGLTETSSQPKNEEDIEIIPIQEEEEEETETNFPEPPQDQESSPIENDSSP
# Assays:
# [1] = target: T1, Human BCMA Protein, Fc Tag (R&D …); assay: ELISA, plate-bound BCMA-Fc, anti-His-HRP
# [2] = target: T3, Human Her2/ErbB2 Protein, Fc Tag (ACRO Biosystems, Cat# HE2-H5253) (human, UniProt P04626 23-652); assay: ELISA: protein on FMC63-coated plate, Her2-Fc titrated, anti-hIgGFc-HRP
# T3 construct: Bought; also called Her2-Fc; HER2-hFc; not shown: Fc tag of the bought protein
# [3] = target: T2, CD20 on stable transfectant line …; assay: flow cytometry on 293-CD20 cells, anti-His-PE or FMC63-PE
# [4] = target: T2, CD20 on stable transfectant line …; assay: flow cytometry on 293-CD20 cells, FMC63-PE
# [5] = target: T2, CD20 on stable transfectant line …; assay: flow cytometry on 293-CD20 cells, 200 µl fusion protein, FMC63-PE
# [6] = target: T2, CD20 on stable transfectant line …; assay: flow cytometry on 293-CD20 cells, 200 µl fusion protein, anti-His-PE
binder,measurement,setting,value
"C11D5.3 scFv (VL/VH) (scFv, His-tagged; also called construct #89; #89) scFv: DIVLTQSPPSLAMSLGKRATISCRASESVTILGSHLIHWYQQKPGQPPTLLIQLASNVQTGVPARFSGSGSRTDFTLTIDPVEEDDVAVYYCLQSRTIPRTFGGGTKLEIKGSTSGSGKPGSGEGSTKGQIQLVQSGPELKKPGETVKISCKASGYTFTDYSINWVKRAPGKGLKWMGWINTETREPAYAYDFRGRFAFSLETSASTAYLQINNLKYEDTATYFCALDYSYAMDYWGQGTSVTVSSGGGGSGGGGSGGGGSHHHHHH",binding result,[1],binds
"purified CD19 protein control (other, UniProt P15391 20-291, looked up) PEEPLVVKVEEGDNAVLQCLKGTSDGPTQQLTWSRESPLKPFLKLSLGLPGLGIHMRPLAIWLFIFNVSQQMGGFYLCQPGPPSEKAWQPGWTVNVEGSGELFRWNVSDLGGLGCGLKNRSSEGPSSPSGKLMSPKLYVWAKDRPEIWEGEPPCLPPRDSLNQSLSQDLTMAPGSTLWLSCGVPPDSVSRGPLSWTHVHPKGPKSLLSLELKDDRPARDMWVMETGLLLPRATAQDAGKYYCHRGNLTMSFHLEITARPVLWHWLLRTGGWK",binding result,[2],no binding
"CD19-D1+2-Leu16 scFv (VH/VL) (scFv, C-terminal His tag; also called construct #83; #83) PEEPLVVKVEEGDNAVLQCLKGTSDGPTQQLTWSRESPLKPFLKLSLGLPGLGIHMRPLAIWLFIFNVSQQMGGFYLCQPGPPSEKAWQPGWTVNVEGSGELFRWNVSDLGGLGCGLKNRSSEGPSSPSGKLMSPKLYVWAKDRPEIWEGEPPCLPPRDSLNQSLSQDLTMAPGSTLWLSCGVPPDSVSRGPLSWTHVHPKGPKSLLSLELKDDRPARDMWVMETGLLLPRATAQDAGKYYCHRGNLTMSFHLEITARPGGGGSGGGGSGGGGSGGGGSMAQVKLQESGAELVKPGASVKMSCKASGYTFTSYNMHWVKQTPGQGLEWIGAIYPGNGDTSYNQKFKGKATLTADKSSSTAYMQLSSLTSEDSADYYCARSNYYGSSYWFFDVWGQGTTVTVSSGGGGSGGGGSGGGGSDIELTQSPTILSASPGEKVTMTCRASSSVNYMDWYQKKPGSSPKPWIYATSNLASGVPARFSGSGSGTSYSLTISRVEAEDAATYYCQQWSFNPPTFGGGTKLEIKRAAAHHHHHH",binding result,[3],binds
"CD19-D1+2-C11D5.3 scFv (VH/VL) (scFv, His-tagged; also called construct #92; #92) PEEPLVVKVEEGDNAVLQCLKGTSDGPTQQLTWSRESPLKPFLKLSLGLPGLGIHMRPLAIWLFIFNVSQQMGGFYLCQPGPPSEKAWQPGWTVNVEGSGELFRWNVSDLGGLGCGLKNRSSEGPSSPSGKLMSPKLYVWAKDRPEIWEGEPPCLPPRDSLNQSLSQDLTMAPGSTLWLSCGVPPDSVSRGPLSWTHVHPKGPKSLLSLELKDDRPARDMWVMETGLLLPRATAQDAGKYYCHRGNLTMSFHLEITARPGGGGSGGGGSGGGGSGGGGSQIQLVQSGPELKKPGETVKISCKASGYTFTDYSINWVKRAPGKGLKWMGWINTETREPAYAYDFRGRFAFSLETSASTAYLQINNLKYEDTATYFCALDYSYAMDYWGQGTSVTVSSGSTSGSGKPGSGEGSTKGDIVLTQSPPSLAMSLGKRATISCRASESVTILGSHLIHWYQQKPGQPPTLLIQLASNVQTGVPARFSGSGSRTDFTLTIDPVEEDDVAVYYCLQSRTIPRTFGGGTKLEIKGGGGSGGGGSGGGGSHHHHHH",binding result,[1],binds
"CD19-D1+2-C11D5.3 scFv (VL/VH) (scFv, His-tagged; also called construct #91; #91) PEEPLVVKVEEGDNAVLQCLKGTSDGPTQQLTWSRESPLKPFLKLSLGLPGLGIHMRPLAIWLFIFNVSQQMGGFYLCQPGPPSEKAWQPGWTVNVEGSGELFRWNVSDLGGLGCGLKNRSSEGPSSPSGKLMSPKLYVWAKDRPEIWEGEPPCLPPRDSLNQSLSQDLTMAPGSTLWLSCGVPPDSVSRGPLSWTHVHPKGPKSLLSLELKDDRPARDMWVMETGLLLPRATAQDAGKYYCHRGNLTMSFHLEITARPGGGGSGGGGSGGGGSGGGGSDIVLTQSPPSLAMSLGKRATISCRASESVTILGSHLIHWYQQKPGQPPTLLIQLASNVQTGVPARFSGSGSRTDFTLTIDPVEEDDVAVYYCLQSRTIPRTFGGGTKLEIKGSTSGSGKPGSGEGSTKGQIQLVQSGPELKKPGETVKISCKASGYTFTDYSINWVKRAPGKGLKWMGWINTETREPAYAYDFRGRFAFSLETSASTAYLQINNLKYEDTATYFCALDYSYAMDYWGQGTSVTVSSGGGGSGGGGSGGGGSHHHHHH",binding result,[1],binds
"CD19-D1+2-Leu16 scFv (VL/VH) (scFv, C-terminal His tag; also called construct #85; #85) PEEPLVVKVEEGDNAVLQCLKGTSDGPTQQLTWSRESPLKPFLKLSLGLPGLGIHMRPLAIWLFIFNVSQQMGGFYLCQPGPPSEKAWQPGWTVNVEGSGELFRWNVSDLGGLGCGLKNRSSEGPSSPSGKLMSPKLYVWAKDRPEIWEGEPPCLPPRDSLNQSLSQDLTMAPGSTLWLSCGVPPDSVSRGPLSWTHVHPKGPKSLLSLELKDDRPARDMWVMETGLLLPRATAQDAGKYYCHRGNLTMSFHLEITARPGGGGSGGGGSGGGGSGGGGSDIELTQSPTILSASPGEKVTMTCRASSSVNYMDWYQKKPGSSPKPWIYATSNLASGVPARFSGSGSGTSYSLTISRVEAEDAATYYCQQWSFNPPTFGGGTKLEIKRGGGGSGGGGSGGGGSMAQVKLQESGAELVKPGASVKMSCKASGYTFTSYNMHWVKQTPGQGLEWIGAIYPGNGDTSYNQKFKGKATLTADKSSSTAYMQLSSLTSEDSADYYCARSNYYGSSYWFFDVWGQGTTVTVSSAAAHHHHHH",binding result,[4],no binding (tested: 200 µl fusion protein)
"CD19-ECD-Leu16 scFv (VH/VL) (scFv, C-terminal His tag; also called construct #63; #63) PEEPLVVKVEEGDNAVLQCLKGTSDGPTQQLTWSRESPLKPFLKLSLGLPGLGIHMRPLAIWLFIFNVSQQMGGFYLCQPGPPSEKAWQPGWTVNVEGSGELFRWNVSDLGGLGCGLKNRSSEGPSSPSGKLMSPKLYVWAKDRPEIWEGEPPCLPPRDSLNQSLSQDLTMAPGSTLWLSCGVPPDSVSRGPLSWTHVHPKGPKSLLSLELKDDRPARDMWVMETGLLLPRATAQDAGKYYCHRGNLTMSFHLEITARPVLWHWLLRTGGWKGGGGSGGGGSGGGGSGGGGSEVQLQQSGAELVKPGASVKMSCKASGYTFTSYNMHWVKQTPGQGLEWIGAIYPGNGDTSYNQKFKGKATLTADKSSSTAYMQLSSLTSEDSADYYCARSNYYGSSYWFFDVWGAGTTVTVSSGSTSGGGSGGGSGGGGSSDIVLTQSPAILSASPGEKVTMTCRASSSVNYMDWYQKKPGSSPKPWIYATSNLASGVPARFSGSGSGTSYSLTISRVEAEDAATYYCQQWSFNPPTFGGGTKLEIKHHHHHH",binding result,[5],binds
"C11D5.3 scFv (VH/VL) (scFv, His-tagged; also called construct #90; #90) scFv: QIQLVQSGPELKKPGETVKISCKASGYTFTDYSINWVKRAPGKGLKWMGWINTETREPAYAYDFRGRFAFSLETSASTAYLQINNLKYEDTATYFCALDYSYAMDYWGQGTSVTVSSGSTSGSGKPGSGEGSTKGDIVLTQSPPSLAMSLGKRATISCRASESVTILGSHLIHWYQQKPGQPPTLLIQLASNVQTGVPARFSGSGSRTDFTLTIDPVEEDDVAVYYCLQSRTIPRTFGGGTKLEIKGGGGSGGGGSGGGGSHHHHHH",binding result,[1],binds
"CD22-D123-Leu16 scFv (VH/VL) (scFv, First three domains of CD22 (further mutated) fused to Leu16 scFv, C-terminal His tag; also called construct #65; #65) DSSKWVFEHPETLYAWEGACVWIPCTYRALDGDLESFILFHNPEYNKNTSKFDGTRLYESTKDGKVPSEQKRVQFLGDKNKACTLSIHPVHLNDSGQLGLRMESKTEKWMERIHLNVSERPFPPHIQLPPEIQESQEVTLTCLLNFSCYGYPIQLQWLLEGVPMRQAAVTSTSLTIKSVFTRSELKFSPQWSHHGKIVTCQLQDADGKFLSNDTVQLNVKHTPKLEIKVTPSDAIVREGDSVTMTCEVSSSNPEYTTVSWLKDGTSLKKQNTFTLNLREVTKDQSGKYCCQVSNDVGPGRSEEVFLQVQYAPEGGGGSGGGGSGGGGSGGGGSEVQLQQSGAELVKPGASVKMSCKASGYTFTSYNMHWVKQTPGQGLEWIGAIYPGNGDTSYNQKFKGKATLTADKSSSTAYMQLSSLTSEDSADYYCARSNYYGSSYWFFDVWGAGTTVTVSSGSTSGGGSGGGSGGGGSSDIVLTQSPAILSASPGEKVTMTCRASSSVNYMDWYQKKPGSSPKPWIYATSNLASGVPARFSGSGSGTSYSLTISRVEAEDAATYYCQQWSFNPPTFGGGTKLEIKHHHHHH",binding result,[6],binds
